Experimental data reported in article PMC12088426, “Activity and structure of human (d)CTP deaminase CDADC1” (Proceedings of the National Academy of Sciences of the …, 2025).
Numbering of substitutions follows the chain as printed. Names may count otherwise. “And” between values parts separate entries of the source, which are not always exact repeats. Identical values can stand only once.

How the values were obtained:
CDADC1 (NYD-SP15) = molecular target: T1, CDADC1 (NYD-SP15) (Homo sapiens, UniProt Q9BWV3, E400A); assay: cryo-EM structure of complex; type: binding; conditions: hexamer, catalytically inactive variant
T1 construct: codon-optimized gene, E. coli BL21-CodonPlus(DE3)-RIL; homotrimer / hexamer (dimer of trimers), hexamer is the active form
T1 sequence (Q9BWV3 1-514 E400A): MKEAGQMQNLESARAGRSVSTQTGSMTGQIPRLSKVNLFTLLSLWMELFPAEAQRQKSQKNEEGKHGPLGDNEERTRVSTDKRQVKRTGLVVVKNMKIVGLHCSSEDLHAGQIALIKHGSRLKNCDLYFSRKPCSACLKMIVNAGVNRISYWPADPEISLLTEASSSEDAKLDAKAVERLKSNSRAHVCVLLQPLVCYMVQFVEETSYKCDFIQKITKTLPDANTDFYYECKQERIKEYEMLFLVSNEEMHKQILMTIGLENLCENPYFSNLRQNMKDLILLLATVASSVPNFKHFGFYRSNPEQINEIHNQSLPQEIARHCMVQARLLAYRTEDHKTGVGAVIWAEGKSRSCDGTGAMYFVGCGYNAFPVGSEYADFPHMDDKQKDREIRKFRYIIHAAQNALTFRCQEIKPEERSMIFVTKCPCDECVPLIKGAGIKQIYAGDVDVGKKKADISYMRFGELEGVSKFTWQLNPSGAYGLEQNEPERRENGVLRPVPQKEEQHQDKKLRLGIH

[1] = substrate: Nc1ccn([C@@H]2O[C@H](COP(=O)(O)OP(=O)(O)OP(=O)(O)O)[C@@H](O)[C@H]2O)c(=O)n1; assay: fluorescent ammonia detection, initial velocities, allosteric sigmoidal fit; type: biochemical, Homo sapiens; conditions: Low Salt Reaction Buffer; 0.3 uM CDADC1 (monomer); Hill coefficient 1.6
[2] = substrate: Nc1ccn([C@H]2C[C@H](O)[C@@H](COP(=O)(O)O)O2)c(=O)n1; assay: as above; type: biochemical, Homo sapiens; conditions: Low Salt Reaction Buffer; 0.3 uM CDADC1 (monomer); Hill coefficient 1.8
[3] = substrate: Nc1ccn([C@H]2C[C@H](O)[C@@H](COP(=O)(O)OP(=O)(O)OP(=O)(O)O)O2)c(=O)n1; assay: as above; type: biochemical, Homo sapiens; conditions: Low Salt Reaction Buffer; 0.2 uM CDADC1 (monomer); Hill coefficient 1.22
[4] = molecular target: the molecule itself; assay: mass photometry; Refeyn TwoMP; CDADC1 at ~0.06 uM (monomer), room temperature, 10 min, without a ligand or with 1 mM dCTP (dCTP stabilised against dissociation); hexamers dissociated to trimers and monomers over time; hexamer = dimer of trimers
[5] = molecular target: the molecule itself; assay: cryo-EM structure; single-particle cryo-EM of CDADC1 E400A alone, with dCTP and with 5-methyl-dCTP; C3 (trimer) or D3 (dimer of trimers) symmetry imposed; maps 2.4 to 3.0 A

For `Nc1ccn([C@H]2C[C@H](O)[C@@H](COP(=O)(O)OP(=O)(O)OP(=O)(O)O)O2)c(=O)n1` [dCTP], the “cryo-EM structure of complex” value (CDADC1 (NYD-SP15); one dCTP per protomer in CTD active site, N4 coordinates Zn2+) was “a hexamer with bound dCTP (PDB: 9HFS)”.

With `Cc1cn([C@H]2C[C@H](O)[C@@H](COP(=O)(O)OP(=O)(O)OP(=O)(O)O)O2)c(=O)nc1N` [5mdCTP] the “cryo-EM structure of complex” value (CDADC1 (NYD-SP15); CTD active site, less clear map than dCTP) was “a hexamer with bound 5mdCTP (PDB: 9HFT)”.

B1: CDADC1 (NYD-SP15) (Homo sapiens) (protein)
chain: T1 sequence (Q9BWV3 1-514 E400A) with A400E
notes: codon-optimized gene, E. coli BL21-CodonPlus(DE3)-RIL; homotrimer / hexamer (dimer of trimers), hexamer is the active form
Molecule B1 has a K0.5 [1] of 0.7 mM, a kcat [1] of 5.0 s⁻¹ and a K0.5 [2] of 5 mM. It also gave a kcat [2] of 8.5 s⁻¹, a K0.5 [3] of 0.2 mM and a kcat [3] of 3.5 s⁻¹.

B2: human CDADC1 (enzyme, UniProt Q9BWV3 1-514, looked up)
chain: T1 sequence (Q9BWV3 1-514 E400A) with A400E
notes: CDADC1 (NYD-SP15), human, 514 residues, expressed from a codon-optimized gene; Complete methods are in the SI Appendix; also called NYD-SP15; source: E. coli BL21-CodonPlus (DE3)-RIL, purified (His-trap, Heparin HP, Superdex 200 Increase)
In the case of B2, the “stoichiometry N” value [4] is reported as 3 and 6.

B3: human CDADC1 E400A variant (enzyme, UniProt Q9BWV3 1-514, looked up)
chain: T1 sequence (Q9BWV3 1-514 E400A)
notes: CDADC1 (NYD-SP15), human, 514 residues, catalytic glutamate E400 changed to alanine; expressed from a codon-optimized gene; This variant was used for all cryo-EM datasets; source: E. coli BL21-CodonPlus (DE3)-RIL, purified (His-trap, Heparin HP, Superdex 200 Increase)
In the case of B3, the “stoichiometry N” value [5] is reported as 3 and 6.
